One experiment concerns the target T1, TNFRSF7(CD27) (UniProt P26842 21-192, limits assumed).
T1 construct: Bought protein
T1 sequence (looked up): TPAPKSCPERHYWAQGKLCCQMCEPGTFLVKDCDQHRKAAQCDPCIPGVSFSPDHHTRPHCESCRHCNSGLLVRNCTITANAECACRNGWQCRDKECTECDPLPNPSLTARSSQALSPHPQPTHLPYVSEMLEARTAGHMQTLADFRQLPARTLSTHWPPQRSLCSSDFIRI
Description: antigen ELISA, receptor coated at 10 ug/ml, detection with HRP anti-human IgG. On the technique in general: ELISA stands for enzyme-linked immunosorbent assay.

The next experiment addresses T2, human CD40 ECD (human, UniProt P25942 21-194).
T2 construct: also called TNFRSF5(CD40); huCD40
Described as above.

A further experiment deals with T3, TNFRSF1A(CD120a) (UniProt P19438 22-211, limits assumed).
T3 construct: Bought protein
T3 sequence (looked up): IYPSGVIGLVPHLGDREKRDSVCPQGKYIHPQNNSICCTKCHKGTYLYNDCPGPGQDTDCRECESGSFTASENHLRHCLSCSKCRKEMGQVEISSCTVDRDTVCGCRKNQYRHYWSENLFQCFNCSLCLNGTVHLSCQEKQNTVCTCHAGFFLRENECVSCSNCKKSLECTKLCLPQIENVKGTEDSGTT
The description is as above.

A further experiment has as its target T4, TNFRSF1B(CD120b) (UniProt P20333 23-257).
T4 construct: Bought protein
T4 sequence (looked up): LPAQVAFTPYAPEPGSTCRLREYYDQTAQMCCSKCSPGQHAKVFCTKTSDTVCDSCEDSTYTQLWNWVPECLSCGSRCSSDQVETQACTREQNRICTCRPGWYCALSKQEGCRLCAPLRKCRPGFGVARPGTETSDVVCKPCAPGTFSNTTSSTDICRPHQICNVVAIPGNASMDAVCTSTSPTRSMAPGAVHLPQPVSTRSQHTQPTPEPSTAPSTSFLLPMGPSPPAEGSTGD
The description is as above.

For experiment [1], the target named is T5, full-length human CD137 (huCD137) (human, UniProt Q07011 24-255).
T5 construct: On transduced Hut78 cells (Hut78/huCD137), transiently on HEK293 cells, or natively on PBMC/T cells; also called TNFRSF9; 4-1BB
Nature of the experiment: flow cytometry ligand competition on Hut78/huCD137: human CD137 ligand ECD-mIgG2a in the presence of serially diluted antibody, ligand detected with goat anti-murine IgG-APC; blocked ligand: m5. (In general: Flow cytometry measures light scatter and fluorescence of single cells or particles in a stream.)

For experiment [2], the target named is human CD137 ECD-mIgG2a (human). Nature of the experiment: SPR, human CD137 ECD-mIgG2a. (In general: Surface plasmon resonance follows binding to a sensor surface in real time, without labels.)
The target in experiment [3] is T5, full-length human CD137 (huCD137). Nature of the experiment: flow cytometry on Hut78/huCD137 cells.
Experiment [4] deals with human CD137 ECD-mIgG2a (human). Description: SPR, antibody captured on anti-human Fc surface; analyte taken as human CD137 ECD-mIgG2a.
Experiment [5] deals with human CD137 ECD-mIgG2a (human). Nature of the experiment: SPR, multispecific antibody captured on anti-human IgG Fc chip, human CD137 ECD-mIgG2a flowed over; Table 15, comparison run with the affinity-matured variants.
Experiment [6] deals with T6, human CD137 ECD (AA 24-183) (human, UniProt Q07011 24-183).
T6 construct: also called huCD137
Description: method and huCD137 construct not stated.

The next experiment addresses T7, recombinant CEA protein (human, UniProt P06731 35-685, limits assumed).
T7 construct: also called recombinant soluble CEA; in-house made recombinant CEA proteins
T7 sequence (looked up): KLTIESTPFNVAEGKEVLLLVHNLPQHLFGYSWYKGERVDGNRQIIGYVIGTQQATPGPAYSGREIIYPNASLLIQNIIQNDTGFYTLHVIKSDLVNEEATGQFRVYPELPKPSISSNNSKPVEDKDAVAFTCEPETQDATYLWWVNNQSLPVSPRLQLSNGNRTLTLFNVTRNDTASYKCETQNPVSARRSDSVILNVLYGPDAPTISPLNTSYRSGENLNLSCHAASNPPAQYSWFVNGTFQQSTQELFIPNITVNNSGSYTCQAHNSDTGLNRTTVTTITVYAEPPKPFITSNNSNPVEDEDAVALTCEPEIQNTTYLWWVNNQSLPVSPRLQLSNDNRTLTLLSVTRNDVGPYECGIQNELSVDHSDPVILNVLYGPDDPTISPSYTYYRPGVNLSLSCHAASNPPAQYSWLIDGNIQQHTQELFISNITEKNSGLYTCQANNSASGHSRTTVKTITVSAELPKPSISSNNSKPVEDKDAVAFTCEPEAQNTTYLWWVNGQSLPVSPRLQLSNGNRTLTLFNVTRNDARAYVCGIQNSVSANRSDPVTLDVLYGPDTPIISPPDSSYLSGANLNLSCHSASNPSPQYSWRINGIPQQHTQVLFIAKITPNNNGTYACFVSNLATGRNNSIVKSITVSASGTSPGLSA
Nature of the experiment: method and CEA construct not stated (TAA KD).

Experiment [7] concerns the target T8, human CEA on cells (human, UniProt P06731 35-685).
T8 construct: whole, on cells; also called CT26/CEA; MKN45
T8 sequence (looked up): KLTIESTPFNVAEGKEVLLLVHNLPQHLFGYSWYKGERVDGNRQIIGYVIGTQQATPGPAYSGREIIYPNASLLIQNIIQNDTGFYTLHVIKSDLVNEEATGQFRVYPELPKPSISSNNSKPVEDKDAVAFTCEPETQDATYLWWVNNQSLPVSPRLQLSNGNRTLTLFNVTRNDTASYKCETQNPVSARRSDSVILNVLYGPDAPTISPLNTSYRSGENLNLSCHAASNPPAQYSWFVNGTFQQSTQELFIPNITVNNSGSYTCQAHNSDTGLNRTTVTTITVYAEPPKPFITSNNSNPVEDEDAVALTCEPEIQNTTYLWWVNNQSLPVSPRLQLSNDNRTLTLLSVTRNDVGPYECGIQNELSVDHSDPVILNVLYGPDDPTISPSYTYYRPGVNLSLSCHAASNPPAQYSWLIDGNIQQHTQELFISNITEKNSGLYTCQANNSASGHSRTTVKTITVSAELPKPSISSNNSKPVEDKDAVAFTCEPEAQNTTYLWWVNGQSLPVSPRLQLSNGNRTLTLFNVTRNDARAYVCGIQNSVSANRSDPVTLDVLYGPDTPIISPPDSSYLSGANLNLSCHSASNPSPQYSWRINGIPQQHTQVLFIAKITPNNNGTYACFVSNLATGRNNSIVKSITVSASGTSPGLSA
Description: flow cytometry on MKN45 cells [panel A].

Experiment [8] concerns the target T9, GPC3 (protein used for the TAA KD of Table 23) (UniProt P51654 25-559, limits assumed).
T9 construct: also called Glypican 3
Description: method and GPC3 construct not stated (TAA KD).

For experiment [9], the target named is T10, Glypican 3 (GPC3) on cells (human, UniProt P51654 25-554).
T10 construct: whole, on cells; also called HepG2; Huh7
Description: flow cytometry on HepG2 cells [panel C].

In experiment [10] the target is T8, human CEA on cells. Nature of the experiment: flow cytometry on CT26/CEA cells [panel A].
For experiment [11], the target named is T5, full-length human CD137 (huCD137). Description: flow cytometry on Hut78/huCD137 cells [panel B].

Chain of human CD137 ECD-mIgG2a (human) (chain, as listed by the source limits assumed): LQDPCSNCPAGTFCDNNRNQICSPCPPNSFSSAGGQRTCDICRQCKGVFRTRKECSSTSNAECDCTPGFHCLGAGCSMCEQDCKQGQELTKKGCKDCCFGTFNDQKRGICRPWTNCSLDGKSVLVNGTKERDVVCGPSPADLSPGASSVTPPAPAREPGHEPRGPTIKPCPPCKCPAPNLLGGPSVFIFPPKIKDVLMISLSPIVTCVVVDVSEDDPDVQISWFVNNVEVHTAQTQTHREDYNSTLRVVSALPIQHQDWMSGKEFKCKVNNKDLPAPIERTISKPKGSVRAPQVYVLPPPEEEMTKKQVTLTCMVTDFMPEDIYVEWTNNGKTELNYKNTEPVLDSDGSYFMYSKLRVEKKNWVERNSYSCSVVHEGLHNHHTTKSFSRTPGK
T5 sequence (Q07011 24-255 limits assumed): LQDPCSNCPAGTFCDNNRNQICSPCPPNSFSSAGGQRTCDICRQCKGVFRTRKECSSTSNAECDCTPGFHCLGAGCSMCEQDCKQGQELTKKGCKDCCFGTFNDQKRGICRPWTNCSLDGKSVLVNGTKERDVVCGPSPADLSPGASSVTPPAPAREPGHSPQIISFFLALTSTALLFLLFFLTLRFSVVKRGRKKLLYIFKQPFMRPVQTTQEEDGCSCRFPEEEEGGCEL
T9 sequence (P51654 25-559 limits assumed): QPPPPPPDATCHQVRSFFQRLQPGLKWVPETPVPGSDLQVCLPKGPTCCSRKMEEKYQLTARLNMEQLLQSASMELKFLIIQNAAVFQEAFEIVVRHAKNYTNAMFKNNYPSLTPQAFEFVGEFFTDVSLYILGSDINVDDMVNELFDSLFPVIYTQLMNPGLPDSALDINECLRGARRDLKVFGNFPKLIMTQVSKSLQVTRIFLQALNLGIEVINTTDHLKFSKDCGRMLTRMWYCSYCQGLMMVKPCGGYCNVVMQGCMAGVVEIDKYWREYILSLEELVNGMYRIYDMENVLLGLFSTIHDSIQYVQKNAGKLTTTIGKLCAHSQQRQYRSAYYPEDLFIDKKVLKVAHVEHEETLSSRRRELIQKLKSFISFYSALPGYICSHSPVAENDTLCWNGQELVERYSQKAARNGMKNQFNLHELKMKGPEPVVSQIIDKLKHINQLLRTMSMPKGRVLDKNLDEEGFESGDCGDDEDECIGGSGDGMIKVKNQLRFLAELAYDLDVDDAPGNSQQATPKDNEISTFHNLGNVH
T2 sequence (P25942 21-194 limits assumed): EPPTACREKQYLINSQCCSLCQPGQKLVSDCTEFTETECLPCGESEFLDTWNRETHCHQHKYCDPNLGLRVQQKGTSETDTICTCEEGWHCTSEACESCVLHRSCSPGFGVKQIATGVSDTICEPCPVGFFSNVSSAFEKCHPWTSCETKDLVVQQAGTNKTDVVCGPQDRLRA
T10 sequence (P51654 25-554 limits assumed): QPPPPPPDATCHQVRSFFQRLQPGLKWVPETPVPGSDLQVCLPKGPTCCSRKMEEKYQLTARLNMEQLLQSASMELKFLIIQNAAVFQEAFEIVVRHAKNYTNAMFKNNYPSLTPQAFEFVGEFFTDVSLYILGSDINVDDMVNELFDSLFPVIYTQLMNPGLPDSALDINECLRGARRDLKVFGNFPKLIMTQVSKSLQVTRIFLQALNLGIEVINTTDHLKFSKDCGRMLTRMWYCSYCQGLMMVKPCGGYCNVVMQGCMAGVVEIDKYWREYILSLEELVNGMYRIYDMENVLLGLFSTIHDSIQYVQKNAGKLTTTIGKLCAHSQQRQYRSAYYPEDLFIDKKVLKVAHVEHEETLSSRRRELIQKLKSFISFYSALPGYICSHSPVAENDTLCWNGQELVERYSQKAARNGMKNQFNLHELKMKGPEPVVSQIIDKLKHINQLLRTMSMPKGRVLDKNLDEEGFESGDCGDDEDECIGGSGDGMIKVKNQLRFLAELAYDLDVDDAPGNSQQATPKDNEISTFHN

B1: Urelumab analog (antibody, human IgG4 S228P, kappa, V domains shown)
VH: QVQLQQWGAGLLKPSETLSLTCAVYGGSFSGYYWSWIRQSPEKGLEWIGEINHGGYVTYNPSLESRVTISVDTSKNQFSLKLSSVTAADTAVYYCARDYGPGNYDWYFDLWGRGTLVTVSS
VL: EIVLTQSPATLSLSPGERATLSCRASQSVSSYLAWYQQKPGQAPRLLIYDASNRATGIPARFSGSGSGTDFTLTISSLEPEDFAVYYCQQRSNWPPALTFGGGTKVEIKR
On to B1, for which the binding result with TNFRSF7(CD27), with human CD40 ECD, in the experiment with TNFRSF1A(CD120a) and with TNFRSF1B(CD120b) was “no binding” throughout. For the same molecule, the “IC50 (read off the curve)” value in experiment [1] was around 0.03 µg/mL.

B2: A-CD137×CEA-M3 (bispecific antibody, human IgG1, kappa)
heavy: QVQLVQSGAEVKKPGASVKVSCKASGYIFTSYYLHWVRQAPGQGLEWIGYINPQTGKTSYAQKFQGRVTMTRDTSTSTVYMELSSLRSEDTAVYYCAREYGNYNYPLDYWGQGTLVTVSSASTKGPSVFPLAPSSKSTSGGTAALGCLVKDYFPEPVTVSWNSGALTSGVHTFPAVLQSSGLYSLSSVVTVPSSSLGTQTYICNVNHKPSNTKVDKKVEPKSCDKTHTCPPCPAPPAAGPSVFLFPPKPKDTLMISRTPEVTCVVVDVSHEDPEVKFNWYVDGVEVHNAKTKPREEQYNSTYRVVSVLTVLHQDWLNGKEYKCKVSNKALAAPIEKTISKAKGQPREPQVYTLPPSREEMTKNQVSLTCLVKGFYPSDIAVEWESNGQPENNYKTTPPVLDSDGSFFLYSKLTVDKSRWQQGNVFSCSVMHEALHNHYTQKSLSLSPGKGGGGSEVQLLESGGGLVQPGGSLRLSCAASGFTLSAEDVGWVRQAPGKGLEWVSAILDFGGSTYYAESVKGRFTISRDNAKNTLYLQMSSLRAEDTAVYYCARVVYHAGGGVTFDYWGQGTLVTVSS
light: DIQMTQSPSSLSASVGDRVTITCRASENQYGYLAWYQQKPGKVPKLLIYNYKNLVEGVPSRFSGSGSGTDFTLTISSLQPEDVATYYCQHHLGTPYTFGQGTKVEIKRTVAAPSVFIFPPSDEQLKSGTASVVCLLNNFYPREAKVQWKVDNALQSGNSQESVTEQDSKDSTYSLSSTLTLSKADYEKHKVYACEVTHQGLSSPVTKSFNRGEC
notes: The chain is therefore built from its pieces
Turning to B2, the dissociation constant (Kd) in the experiment with human CD137 ECD-mIgG2a [2] was 255 nM. The molecule further gave a concentration for a half-maximal effect (EC50) in experiment [3] of 0.52 µg/mL. In the experiment with human CD137 ECD-mIgG2a [4], this molecule returned a dissociation constant Kd of 255 nM, a dissociation rate constant (koff) of 0.00267 s⁻¹ and an association rate constant (kon) of 10500 M⁻¹ s⁻¹. In the experiment with human CD137 ECD-mIgG2a [5], this molecule had a dissociation constant Kd of 289 nM.

B3: BE-146 (CEA × CD137) (bispecific antibody, human IgG1, kappa)
heavy: QVQLVQSGAEVKKPGASVKVSCKASGYIFTSYYLHWVRQAPGQGLEWIGYINPQTGKTSYAQKFQGRVTMTRDTSTSTVYMELSSLRSEDTAVYYCAREYGNYNYPLDYWGQGTLVTVSSASTKGPSVFPLAPSSKSTSGGTAALGCLVKDYFPEPVTVSWNSGALTSGVHTFPAVLQSSGLYSLSSVVTVPSSSLGTQTYICNVNHKPSNTKVDKKVEPKSCDKTHTCPPCPAPPAAGPSVFLFPPKPKDTLMISRTPEVTCVVVDVSHEDPEVKFNWYVDGVEVHNAKTKPREEQYNSTYRVVSVLTVLHQDWLNGKEYKCKVSNKALAAPIEKTISKAKGQPREPQVYTLPPSREEMTKNQVSLTCLVKGFYPSDIAVEWESNGQPENNYKTTPPVLDSDGSFFLYSKLTVDKSRWQQGNVFSCSVMHEALHNHYTQKSLSLSPGKGGGGSEVQLLESGGGLVQPGGSLRLSCAASGFTVSAEDVGWVRQAPGKGLEWVSAILDKGGSTYYAESVKGRFTISRDNAKNTLYLQMSSLRAEDTAVYYCARIVYHAGGGVTFDTRGQGTQVTVSS
light: DIQMTQSPSSLSASVGDRVTITCRASENQYGYLAWYQQKPGKVPKLLIYNYKNLVEGVPSRFSGSGSGTDFTLTISSLQPEDVATYYCQHHLGTPYTFGQGTKVEIKRTVAAPSVFIFPPSDEQLKSGTASVVCLLNNFYPREAKVQWKVDNALQSGNSQESVTEQDSKDSTYSLSSTLTLSKADYEKHKVYACEVTHQGLSSPVTKSFNRGEC
notes: Module ratio 2:2
In the case of B3, the Kd in experiment [6] turned out to be 167 nM; in the experiment with recombinant CEA protein, 6.5 nM. Also, in the experiment with human CEA on cells [7], the “EC50 (read off the curve)” value was around 0.5 µg/mL.

B4: BE-830 (GPC3 × CD137) (bispecific antibody, human IgG1, kappa)
heavy: not shown
light: DVVMTQSPLSLPVTPGEPASISCRSSQSLVHSNRNTYLHWYLQKPGQSPQLLIYKVSNRFSGVPDRFSGSGSGTDFTLKISRVEAEDVGVYYCSQNTHVPPTFGQGTKLEIKRTVAAPSVFIFPPSDEQLKSGTASVVCLLNNFYPREAKVQWKVDNALQSGNSQESVTEQDSKDSTYSLSSTLTLSKADYEKHKVYACEVTHQGLSSPVTKSFNRGEC
notes: also called CD137×GPC3; GPC3×CD137 multispecific antibody BE-830
On to B4, for which the equilibrium dissociation constant (Kd) in experiment [6] came out at 182 nM; in experiment [8] it was 1.47 nM. Further, in experiment [9], the 50% effective concentration (EC50 (read off the curve)) was around 0.7 µg/mL.

B5: anti-CEA Ab (IgG1) (antibody, V domains shown)
VH: QVQLVQSGAEVKKPGASVKVSCKASGYIFTSYYLHWVRQAPGQGLEWIGYINPQTGKTSYAQKFQGRVTMTRDTSTSTVYMELSSLRSEDTAVYYCAREYGNYNYPLDYWGQGTLVTVSS
VL: DIQMTQSPSSLSASVGDRVTITCRASENQYGYLAWYQQKPGKVPKLLIYNYKNLVEGVPSRFSGSGSGTDFTLTISSLQPEDVATYYCQHHLGTPYTFGQGTKVEIKR
notes: also called anti-CEA antibody
B5: the half-maximal effective concentration (EC50 (read off the curve)) with human CEA on cells [7] was around 0.5 µg/mL; with human CEA on cells [10], around 1 µg/mL. Further, in experiment [11], the binding result is “no binding (tested: just above 10^2 ug/ml)”.

What is called Kd is a measure of binding affinity in units of concentration. Usually EC50 stands for the concentration that produces a half-maximal response. A high value points to a less potent agent. In general, koff refers to the first-order rate constant of dissociation. Higher therefore signals a short-lived complex. Usually kon stands for a measure of how fast the partners come together. By EC50 (read off the curve) is commonly meant the concentration giving half of the maximal effect.

(Values after US20240209106A1 (BEIGENE SWITZERLAND, published 2024).)
